# Measurements as given in article PMC6102255, “EPO does not promote interaction between the erythropoietin and beta-common receptors” (Scientific Reports, 2018).
# B1: extracellular regions of the beta-common (βc) receptor, in-house purified (domain or fragment, UniProt P32927 17-443, looked up)
# chain: WERSLAGAEETIPLQTLRCYNDYTSHITCRWADTQDAQRLVNVTLIRRVNEDLLEPVSCDLSDDMPWSACPHPRCVPRRCVIPCQSFVVTDVDYFSFQPDRPLGTRLTVTLTQHVQPPEPRDLQISTDQDHFLLTWSVALGSPQSHWLSPGDLEFEVVYKRLQDSWEDAAILLSNTSQATLGPEHLMPSSTYVARVRTRLAPGSRLSGRPSKWSPEVCWDSQPGDEAQPQNLECFFDGAAVLSCSWEVRKEVASSVSFGLFYKPSPDAGEEECSPVLREGLGSLHTRHHCQIPVPDPATHGQYIVSVQPRRAEKHIKSSVNIQMAPPSLNVTKDGDSYSLRWETMKMRYEHIDHTFEIQYRKDTATWKDSKTETLQNAHSMALPALEPSTRYWARVRVRTSRTGYNGIWSEWSEARSWDTESVLPMW
# modifications: biotin (EZ link sulfo-NHS biotin) when immobilised in SPR; unmodified otherwise
# notes: beta common receptor (βc, shared subunit of the GM-CSF, IL-3 and IL-5 receptors), extracellular regions; Used in SEC, MST, SPR and AUC; Plasmid donated by Dr. Timothy Hercus; purification details are in the Supplementary data; also called βc homodimer; CD131
# How the values were obtained:
# [1] = biological target: extracellular domains of the erythropoietin receptor (EPOR), in-house purified (UniProt P19235); test: MST; EPOR labelled with DyLight 650 (30 nM), unlabelled EPOR titrated (0.05-1700 nM); 50 mM Tris, 10 mM MgCl2, 150 mM NaCl, 0.05% Tween 20, pH 7.5; 60% laser power; homodimer to monomers, no EPO
# [2] = biological target: the molecule itself; test: AUC; sedimentation velocity, 20 °C, 50,000 rpm, 10 mM HEPES, 500 mM NaCl pH 7.2; single proteins (EPO 3 μM; EPOR 1.5, 3, 6 μM; βc 0.75, 1.5, 3 μM) and mixtures of two (EPO + EPOR; βc + EPOR)
Molecule,Kd [1],stoichiometry N [2]
"extracellular domains of the erythropoietin receptor (EPOR), in-house purified (from UniProt P19235 25-250) (domain or fragment)",0.166 µM,–
B1,–,2
